# In publication PMC7373190, “Archaeal Chromatin Proteins Cren7 and Sul7d Compact DNA by Bending and Bridging” (mBio, 2020):
# Target: the molecule itself
# Test: cross-linking; 10 ug protein in 10 ul, 1 mM DSP, 30 min at 25°C, 20 mM HEPES-KOH pH 7.6, 50 mM KCl, without or with pUC18 DNA (protein/DNA mass ratios 1:1 and 1:5); non-reducing 15% SDS-PAGE, Coomassie
protein,measurement,value
Sis7d (natural protein) MTTVKFKYKGEEKQVDTSKIKKVWRVGKMISFTYDEGGGKTGRGAVSEKDAPKELLQMLEKQKK,stoichiometry N,2
